A short description of this series: protease stability score; higher = more stable; yeast display proteolysis, trypsin and chymotrypsin.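 Also: log10 excess protease needed over predicted unfolded state with 0 meaning unfolded.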
In turn, “DEEELREMVKKWLEVVQKGDQKKAVEMYKPNGEWRMIDEEKQGQEDVEKMLRKAQEDGVEFQTRKAKVEGNKAEMHYDMKLGDETVTFTVQLVAHGGRIDRVKVKVTEEAKKLLTKG” registered a protease stability score of 0.221. Consider “DDEAQRIVHKFVRAMQTNDPDSVEKLLDKNARIEYGDKTIHGNSQAREEVEKTKNQARFQIDSYRVQEEPGRAVLDQKVTFRINGQPDQMRHTLYFDFHNGRVTNLHMHIDEDDYQRHRG”, for which the protease stability score was -0.019. The value for “DEKKVKEMVTEAQKAIENNDSDTMAKFLKPDVEFHFGDVKLKGPEDVKKYYDKVRRVGMEAHVKEAEVKGDTAQVVYDVEVKGKRVTITARVQMKDERVDRAEVELDEDYAREVTEG” was -0.02; that for “DQDHEQKMMTRVAHAFDNGDDQSLARLMDPNVSVTVGDKSVHGRERVRELVNEWRHRVDHIKLDRVEHQGNKAKFHITVEHNGERDQVDLEIEARNGKVKNVVLHRP” was 1.26. Consider “DEEDVKTMIRIINTGDPDKFEKYFDPNASVRIGDHTFKGNKQVSEFIRRMRRKADHIEVKRVKTTNGRADIDLVVTFNGREIRFHVHAEAHNGKAERQELKVTDPNQQKELNNLVH”, for which the protease stability score was 0.837.

“DEEDLHHLAREMKDLMQRGDHKRFEELADENARLIIGDKTVTGRTRIKDELRKWREEADHIQIHDVRASGNRINLDIRVVVNGQEHRFIVIIELKNGKVSQMEVEDS” gave a protease stability score of 1.91. The figure for “DEKDVHLARKYYQNFRDGDPDKLKRMADKDAKMSVGDKHLHGMEKIATDLQREHEEMHIDRKIDDVKVNGDKAIVHLKVNINVDGKPTSDSVTVIFKFENGKITTLEYRFDPDKQRKINK” is 0.294. The value for “DDDQRRKAAQRAHELVKTGDPEEIEKLADKHARIQVGDKRVQGREEAKKIMKEFRERVDHIRISDVQVDGDKIKVDVVVVHNGTKKHVVFVFRVHNGKATEISLEDK” was 0.027; that for “EEHQQKLIEEVLKAMDSGDEDRIKELVDPNAEFHVGDKTWHGMQDWARHVREEVEQIDFTWVNMEIRVKNGTVIMKARFEETRDGQPRTQNVNLRARVHNGRLTSMENDQHG” was 0.375. Sequence “DEKEKAKKMFEKWHDVWRTNDPKKMNELADKDARINVGEKNYHGREHVEKIWRDLMERIDHVQLRVQTITSTGDKVEIRATVVIDHNGKQDEDTYVYVFQIDNGTVSFVQVRQS” yielded a protease stability score of 0.576.

“DEHAVEVAKKIVEAWKDGDPKRFNELFDPNAQLRVGDHHFHGSHEADRHMQTINKEQRVRYKNVRVESRPGRVEVRVDMEKTHDGRPRRSEFTVQINVHDGQVKKLTVQEDG” came in with a protease stability score of 0.239. The figure for “DEEAARKFEHALRVREHGNEHQLQELVDPNARVSIGDKRVKGHERIQHWQETLHHEMRFRMQVDSYEVQGEKVRFNVRVQYDINGQPVDDRMTLVVQFDNGRIKSVEYQIPTEMKRDLKR” is 0.032; for “DEEDANDMRHVWEVLDTGDEERFLQMVDPNVKVVIGDKEYHGRENLRKFLQDQKREMSERIKSIRVHDHNGRIKINAHATNQQNGQPHSFNIDAEAELHNGKITHLNVQTDG” it is 2.17; for “EEEKLQKVMEKMFRAVQNGNVEQLKKLGKEDVQFQFVDKRVQGAETYAQEMEKTHRQGNQFEIKEAQVKDDKVTMRTVVDYGDQRITVKAEAQYDGGRLDNARVELTEEYREVLKKG” it is -0.214. The value for “DERQRSRAEEFMKNYQTGNEQNLDKLFDKNAKVHVGDKVVHGREQIREQNRREKEHLRFKIRHMDVEVRNGHVSVQVRMEREHNGHPQTVSVQFRNEQHNGQIKRFEREEQQ” was 0.258. With “DEQTKAERFVQRVEEILKHGDEKKYAHLADKNVKVKYGDKEWHGREHWEKEVKKTRDKVDDIRIDYKELQVHNGKVDVRFQVRNNHNGKNESRDASYTLDDHNGRIRIQSMHVK”, the protease stability score is -0.009. The figure for “DEQTKAQQFAEDVVKANQQNDKDRLTEQFDKNARVQVGEKEVHGREHIMEELIKLMTEADKVDVKVRHVHAQGDKVHLDIHFRMRVNGQDHDSRMTIVARNSNGTVVIESVDVK” is 1.19; for “DEEEVRRIAHEFLKAVERGDEKRVRQLADKDVRAVVGDKRIHGKKDLAKLVKTLRDRADQFKVRDLEVQGNHVEVDLVMIVNGQSVDMSINIVVHNGTIHHMEIRVTDEDRMREVNS” it is -0.053. The figure for “DEEDRHELQRRAEHGDFLNLAHNADPNAHIKVGDKDLTGREDLDHVLRKMHNRIDRYHLVHVTKTGDKLVVRAQARVDGRDIEFKMEIRARNGRIKEVSIRFRSEEDQKTFEKLLK” is 0.059. The value for “ENHVMNNAEKYLRLLEKGDEEELVKMADPNAKFRIGDKHVHGMESFADDLFRKQKEIRMEINIKHYEVQGDHVTIKAEQEKQHDGRPRRDTNKIIMQVHNGKIKQVTFTSDG” was -0.222; that for “DERDLKEAIDNIRTNNFDELNKMADPNVKAVIGNKTIHGRETINKFLHRLSQQVDHVRIRHYHTRGDHLHVDFKVHFDGKDVKLRIVIRVNNGKITYIQIDVTSEEQLEELDEIVD” was 1.59. Turning to “DDEHVRRLAEQLFKAMQSGDPDTVESLFDKNARVQIGDKSVSGHEDISKIFHDNWKRVDEFQLRTYDAHNGRVQLRFELHINGRRADITLSIEFRNGKIQEAVFEFRDESVRQQFRT”, the protease stability score was 1.29.

Regarding “DTTTEIQRLVHDFVRKIKTGDPKEFERLVDEDARVRVGDKTVSGREEAVSHMVETAQRADTMDVNITSVSIHNGHAKVEFHLKYDHNGKDVEQTIIFVMVKRNGHFRLKEMVQK”, the protease stability score stood at 1.26. The value for “DEEQVRKVVEQLLKMLQNKNTEEIVKLVKEDATFTLGDETRRGQEDVRKLVQRLKEQGAEFHTHEVRVKGGEAKAKTQWHVANREVHAEVKYVVRGDKVEKVEVRWSEEAKKALKEG” was -0.071; that for “DEEKLAENFLETMQNIAREGDEEKMADLFDPNAEIQVGDKSYQGREDVLELNRREFERYDHVRIDVKRFSVKNGQLDAEMSVTFSVNGKTDSHDQRLRATLHNGRLKAKHRTNG” was 0.476; that for “DEDQAQKLIDKMTEAMFKNDEETIRKVGKEDVEVKNADEEYKGVDTIVDLARKYKEQGIEFHLEQVHKEGDQVKFTAVVHVADRTVKVEVKYKADNGHVERTEVEWSQEVKKAFQQH” was 0.97.

Sequence “DEDERAEKMARTAQEILETGDEEKAKRLFPPNARAKVGDRTYHGREDIVKHLKELWDRADHVRVEIKSFRVRGDNVHVVMTLVFTYNGKNETQQLTMIFVHVNGRQVAQDMKIG” registered a protease stability score of 0.671. The figure for “DETKVKKLVVHVAQVLMSGQVDEAQKFLNPDVEFHAGNVTLHGPEQVLEYYKKIQKRGVEFHVKEAEVHGNTVEVKYDVKFDGTEQTLKFKAEVKDTVVEKAELEIDEDYVRAVQKG” is 1.11. As to “DEKKLQELLKKAFEAALNGDEDKLRKLLAPNVKYKYGDTEREGEDAVRLVMQIVKHIGVEVKKQEEEVKGGRMRAVFRYDNGSQTVQTTAEVQYEGDKVKEVRVEITDEIKKVMQRG”, the protease stability score was 1.17.

In the case of “DEEEAEKILEKLVKAVENGDETKLMQLGADGVRYKVGDREDHGPEAIQKAMQYLKRYGVRVEFKEVKHKGDRVTTVAEYENGDKRNTVTIHAHAKGGKIDEVQVNVDEDLVKFIKHG”, the protease stability score came to 0.266.

Turning to “EEEDVRKAKKFIQLLNSNDQENLKTLADPNATFRYGDKHIHGMDRVNQYLDRVDHTMKRDIEVTSMSAQGDHVRIHAIMRFKVNGNPDQIDIIIVVVVENGRIKEVQIRMPEEDKRRVDR”, the protease stability score was determined as 0.416. As to “DEENRHAAEQYLTALRTGDEEQLKKNADPNVRVQVGDKQWTGMERYAHDQVRQLKEIHIEIKVDDIKVSNGEVDMKAERNSNHNGKPSRNRASLTIVVHNGKIQEIHWQEDS”, the protease stability score is -0.47. The figure for “DETAMEVAERFLENINNGNPEEATKQFDPNARFIVGDKRLTGQEQVKSEIEDQKKHIDVNYDVKRVEIDGDKALLELDVQNEHNGRPRTDSAVITMEAHNGKITHMQRDHDG” is -0.594; for “DEQVLRVLNEYLEDLKRNNEERLRKLADPNVKFQVGDKTLHGMEDAVNHWRHLLDHMELRIDITEVNVSNGRAVVNARASQNVNGRPNDNEVQIVAEAHNGTLKFVEWRFDPDRQRKIDS” it is 0.114. The figure for “DDEDAHRVADDANKALERGDERRLKELFDKDVRLHYGDKHVRGREEFEDWVQEWLRTVDKIRVEDYKVHDGVVRIRIRVDINGKDVSQTIDLDVKNGTIVNVVIKDN” is 1.43; for “DDKDMEQIKRLIEQLLTGDPDSAKRNFDENARVTIGDKTIEGRDDMRRWVDTVHKHAQLEITHMTVKVHGDKVKVNMDARRTHNGRPERATFKMDVELQNGKVKNQSIEIRK” it is 0.223; for “DEDEKRKAEHLVRDGSFEELKDLMDENAKVRYGDKEFKGREQAQDAMRQMSRAVDSITVKSLDMQGDTVTARAQLTYNGQHYDVVIQMVVNNGRIKQFVVVVRDPKQKRTLENLRQ” it is 0.567. The value for “EDEVRQRAEEFLKAWERGDPETLMRMADPNARFKIGDKEVHGREDYHREHKRQRDQMRYRLHSYEVSASGDKVHVDVSYNMNNNGQPNNSRQTFSARVDNGKIKELNVQSTG” was -0.061; that for “DEEKVVKKHVEDLRENWRTNNEDELMKLAPPDVRVEVGDTEIHGHDQLRHWAQEMSDRIDHLEVDFRSFELENGRAEVNAKVVNNHNGKEDTNSVNITAEVQGDRMKIESMKVK” was -0.492.

“DKEMASVVERWLDALQRNDPDQANNNADKDATFDVGDKKVKGRDTLKKLVEDLRREMRFNITSMSITVHGDKVVVTYRVSMQHDGQPMQHRYFLHAQDKNGHIHNLHVQKSD” had a protease stability score of 0.44. The value for “DEDKVNEFMRHFLDVFETGNEKDVKKMADPNAKIEYGDKTLHGRENLRKVIADWRKRVDRIQIEHVDLQGNKARIIVVLNINGRNIRVDIDVNVHNGEIKSIRFEFTDPKTLQRATS” was 0.649; that for “DDQEERDWNERMKQVLRTGDEHRLEQLMDENVRMRVGDSVVTGREKVRQVFHELMKQADKIEVKSVSAQGNEVLIRFVLNHNGKNDDVVIEVRVHNGRIKEIVIRSK” was -0.001; that for “DEENEDLLRKFVEALERNDEDKIMEQADPNAELRYGDKHIHGREKMRELVQNREKELRLDVKDFEVDVNNGHARITVENVQETNGRPTTTRYRIDASIHNGRLQKVNITSDK” was 0.287.

As to “DEQLRDRVTQLFKVWQTGDPKKVSEMFDKDARLEYGDKTVHGMEEARHQQDTRRREARLSLDIRSINVQGNQVEIDVRIEEDENGKPDTKQVTIRIRARNGRIHNAKLQDDG”, the protease stability score turned out to be 0.1.

For the sequence “DKELWEWFRRWLENYRTGNHNNIREMADPNVRMVVGDKHISGREHYAEEVSRQVHKLRVSLDFKDYDLRPNRVNVDAVIRMTSDGEPDQSKWSQTLQFSNGRLHQANVTMNQ”, the protease stability score turned out to be 0.192.

In the case of “DSEEEKTISEQLRTNNPDDAEKLVDENARIVVGDKVIDGRKDAHRFFKRLTEQIDHLQVDSLTVKNGRFSLDFRFNVNGRDLRMVMKVVVDNGKIQYMQLDARDHDIQEHMRDALR”, the protease stability score came out at 0.967. “DDHANRVVEDVMQAWQDNDEDRLKELLDPNVKVEYGDRRVEGRDEAVREWVEQFRQSTIEYEIKSVNNSGDKVQINMDMRFESNGHPDENRVRLEASAHNGKIRELNFHTDQ” gave a protease stability score of 0.589.

(Values after the NTF2 design screens of Basanta et al. (2020).)
